In publication PMC7234810:
pKd: −log10 of the molar value.

Tests used:
[1] = biological target: Human ST2-Fc chimera (human) (UniProt Q01638)
[2] = biological target: Mouse IL-33-TRAP-Fc (a fusion protein of ST2 and IL-1RAcP with an Fc tag) (mouse); experiment: SPR; BIAcore T200, single cycle kinetics, 25°C; mouse ST2-Fc (~200 RU) or mouse TRAP-Fc (~400 RU) captured on a Protein G chip; HpBARI injected in three-fold dilutions; 10 mM NaH2PO4 pH 7.5, 150 mM NaCl, 50 uM EDTA, 0.05% surfactant P20; 1:1 model
[3] = biological target: Mouse ST2-Fc chimera (mouse) (UniProt P14719); experiment: as above
Chain of Mouse ST2-Fc chimera (mouse) (P14719 27-332, change not shown): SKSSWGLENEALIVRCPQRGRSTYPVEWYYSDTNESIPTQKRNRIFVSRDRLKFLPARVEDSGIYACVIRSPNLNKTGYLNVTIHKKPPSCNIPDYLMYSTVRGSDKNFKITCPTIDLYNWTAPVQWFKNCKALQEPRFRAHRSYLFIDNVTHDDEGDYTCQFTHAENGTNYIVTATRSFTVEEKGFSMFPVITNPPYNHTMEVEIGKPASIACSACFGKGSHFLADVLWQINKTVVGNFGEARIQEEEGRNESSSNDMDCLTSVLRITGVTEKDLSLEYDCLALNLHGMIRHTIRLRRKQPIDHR

Chain of Human ST2-Fc chimera (human) (Q01638 19-328, stated change not applied): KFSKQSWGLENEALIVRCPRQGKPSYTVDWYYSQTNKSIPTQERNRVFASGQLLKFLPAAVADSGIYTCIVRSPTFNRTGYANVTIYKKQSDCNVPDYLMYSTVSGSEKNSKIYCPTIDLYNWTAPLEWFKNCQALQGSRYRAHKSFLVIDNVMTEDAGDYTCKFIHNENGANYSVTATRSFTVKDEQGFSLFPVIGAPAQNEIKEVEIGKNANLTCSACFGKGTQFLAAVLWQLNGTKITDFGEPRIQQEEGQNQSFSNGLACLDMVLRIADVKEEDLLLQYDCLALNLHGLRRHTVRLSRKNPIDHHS

Substance	IC50 of inhibition of IL-33-induced IFN-γ production from human PBMCs (5 ng/ml IL-12 + 0.1 ng/ml oxidation resistant human IL-33, 44 hr, ELISA); blocks human IL-33 with human ST2 [1]	pKd [2]	koff [2]	kon [2]	pKd [3]	koff [3]	kon [3]	fold change of the off-rate against the N-terminal tagged construct [2]
H. polygyrus Binds Alarmin Receptor and Inhibits (HpBARI), N-terminal tagged (natural protein)	> 1000 nM	9.77	0.00065 s⁻¹	3.9e+06 M⁻¹ s⁻¹	9.59	0.0011 s⁻¹	4e+06 M⁻¹ s⁻¹	
HpBARI expressed with C-terminal tags (natural protein)								4 fold
